Assay results reported in patent US12459987B2, “Monoclonal antibodies for prevention and treatment of herpes simplex viral infections” (priority 2019, dated 2025).

Assays:
gB-1 = gB-1 (Human herpesvirus 1, UniProt P10211); assay: Luminex competition: inhibition of binding of BMPC-23 human IgG to gB-1; design: species or system HSV-1; conditions: for Competition with BMPC-23: Table 3 summary
Experimental: FIGS. 10A-10G show the capacity of gB-1 specific mouse monoclonal IgG antibodies to inhibit binding of BMPC-23 human IgG antibodies to gB-1.
Finding BMPC-like antibodies. Nine out of 10 gB-1 specific mouse monoclonal IgG antibodies in FIG. 3 were tested for their capacity to inhibit binding of BMPC-23 human IgG antibodies to gB-1. Serially diluted, gB-1 specific mouse monoclonal antibodies or irrelevant, control mouse antibody (H33Lγ1) were incubated with gB-1 conjugated Luminex beads. After incubation, fixed concentration (2 ng/ml) of BMPC-23 human IgG antibodies were added to each well. After washing, mouse anti-human lgG-PE was added to detect binding of human BMPC-23 antibodies. […] Strong inhibition by HSV010-4 (>95% at 222 ng/ml), HSV010-7 (>90% at 222 ng/ml), and HSV010-34 (>80% at 222 ng/ml), shown in FIGS. 10B, 10F, and 10G, respectively, indicates these antibodies bind epitopes on gB-1 closely overlapping with the one recognized by BMPC-23. Therefore, similar protective efficacy as BMPC-23 is expected from these antibodies (experiments in progress). […] Protective efficacy of these antibodies need to be tested (experiments in progress).

[1] = system: HSV-2 G infected cell lysates; assay: ELISA binding of recombinant antibodies to HSV-2 G infected cell lysates; design: species or system HSV-2 G strain; conditions: Table 3 summary
Experimental: Binding of recombinant antibodies to HSV-2 G lysates was tested by ELISA. Both heavy and light chain V(D)J rearrangements were amplified from selected single B-cell culture wells (22D10, 32H6, 33B8, and 35H7) by standard RT-PCR. These cloned V(D)J rearrangements were introduced into expression vectors. Recombinant antibodies were obtained by co-transfection of these expression vectors into Expi293F cells. ≥4 mg of purified IgGs was obtained (not shown). […]
Briefly, mice were vaccinated with ΔgD-2 and then 16 days after vaccination, the draining, inguinal lymph nodes were harvested. GC B cells were isolated from these tissues and were cultured in Nojima cultures. Although overall cloning efficiency of GC B cells from these (shipped) tissues was lower than those from freshly isolated tissues (6% vs. 20%), 50 GC clones were obtained that were specific to HSV-2 G strain (HSV-2 G or HSV2-G) lysate. GC B cells from inguinal lymph nodes of mice vaccinated with ΔgD-2 were sorted directly into 96-well plates (1 cell/well). These GC B cells were then cultured in the presence of NB-21.2D9 feeder cells. After culture, presence of IgG was first determined by ELISA, and then the reactivity of culture supernatant IgG against HSV-2 G lysates (HSV-2 G) and uninfected Vero lysates were tested by ELISA.
Based on the obtained V(D)J sequences from each B-cell culture, paired heavy and light chains were re-expressed (as recombinant mouse IgG1 and IgG2c antibodies) in Expi293F cells (Kuraoka et al. Immunity 2016; DiLillo et al. Nature Medicine 2013). […] As expected, all recombinant antibodies reacted specifically with HSV-2 G lysates (FIG. 3). […] Binding of recombinant antibodies to HSV-2 G lysates was tested by ELISA. Both heavy and light chain V(D)J rearrangements were amplified from selected single B-cell culture wells (22D10, 32H6, 33B8, and 35H7) by standard RT-PCR. These cloned V(D)J rearrangements were introduced into expression vectors. Recombinant antibodies were obtained by co-transfection of these expression vectors into Expi293F cells. ≥4 mg of purified IgGs was obtained (not shown). […] These recombinant antibodies (≥4 mg each) were tested for identification of reacting antigen(s), in an in vitro FcγRIV activation assay (Promega FcγRIV ADCC Reporter Bioassay)(FIG. 4), and in vivo protection assay. […]

[2] = molecular target: glycoprotein B of HSV-1 (gB-1) (Human herpesvirus 1, UniProt P10211); assay: Luminex multiplex assay, binding to gB-1; conditions: Table 3 summary
Experimental: FIGS. 9A and 9B are graphs of median fluorescence intensity (MFI) versus IgG concentration (ng/ml), showing the binding of various recombinant antibodies to gB-1 as measured by Luminex multiplex assay.
BMPC-23 binds HSV-1 gB (gB-1). The gB-1 binding of the antibodies was determined by Luminex multiplex assay. Mixtures of antigen (gB-1)-conjugated microspheres (1,000 counts each) were added to each well of 96-well filter plates (Millipore). After washing with PBS containing 1% BSA, 0.05% Tween 20 and 0.05% NaN3, serially diluted recombinant antibodies (5E7, 19G7, 18G4, 22E10, 3A2, 17G3, 22D10, 32H6, 33B8, 25H7, BMPC-23, and S5V2-29) were added to the plates and incubated for 2 hours at room temperature, with mild agitation of the plates. Samples were diluted in PBS containing 1% cow milk, 1% BSA, 0.05% Tween 20 and 0.05% NaN3. After washing, PE goat anti-mouse IgG was added to the plates and incubated for 1 hour at room temperature with mild agitation. After washing, microspheres were resuspended in PBS containing 1% BSA, 0.05% Tween 20 and 0.05% NaN3 and fluorescent signals from each microsphere were measured in a Bio-Plex® 3D machine.
Finding gB-1 specific HSV antibodies. After Nojima culture (single B-cell culture), HSV-specific antibodies were cloned from germinal center B cells and tested for binding to HSV-1 gB-1 by Luminex multiplex assay as described above. FIGS. 9A and 9B show the gB-1 binding results for 10 antibodies in comparison with BMPC-23. With the exception of BMPC-23, the antibodies in Table 3 were derived from germinal center B cells (lymph nodes) taken 15-17 days after primary vaccination with ΔgD-2. BMPC-23 was derived from bone marrow plasmacytes taken 2 weeks post-boost with ΔgD-2. Nucleotide sequences and amino acid sequences for the heavy-chains and light chains are shown in Table 4, as are the amino acid sequences for the light chain and heavy chain CDR1, CDR2, and CDR3.

Molecule	Competition with BMPC-23 (gB-1)	Binding to HSV-lysate [1]	Target antigens [2]	Inhibition of binding of BMPC-23 human IgG antibodies to gB-1 (in words) (gB-1; BMPC-23 human IgG 2 ng/ml)
HSV010-4: gB-1 specific mouse monoclonal IgG; IgH SEQ ID NO: 32, IgL SEQ ID NO: 34 (antibody, V domains shown, HSV010-4 heavy chain; HSV010-4 light chain) VH: QVQLKESGPGLVAPSQSLSITCTVSGFSLSRHDVSWVRQPPGKGLEWLGVIWGDGSTNYHSALISRLSISKDNSKSQVFLKLNSLQNDDTATYYCAKEDYGIFPYWGQGTLVTVSAA VL: DIKMTQSPSSMYASLGEKVTITCKASQDISSYLSWFQQKPGKSPKTLIYRANRLVDGVPSRFSGSGSGQDYSLSISSLDYEDMGIYYCLQYDEFPLTFGAGTKLELKR	Strong	Yes	gB	
HSV010-8: gB-1 specific mouse monoclonal IgG; IgH SEQ ID NO: 68, IgL SEQ ID NO: 70 (antibody, V domains shown, HSV010-8 heavy chain; HSV010-8 light chain) VH: QVQLKESGPGLVAPSQSLSITCTVSGFSLNNYDVSWVRQPPGKGLEWLGVIWGDGSTNYHSALISRLSISKDNSKSQVFLKLNSLQTDDTATYYCAKEDYGIFPYWGQGTLVTVSAA VL: DIKMTQSPSSMYASLGERVTITCKASQDINSYLSWFQQKPGKSPKTLIYRANRLVDGVPSRFSGSGSGQDYSLTISSLEYENMGIYYCLQYDEFPLTFGAGTKLELKR		Yes	gB	
HSV010-16: gB-1 specific mouse monoclonal IgG; IgH SEQ ID NO: 76, IgL SEQ ID NO: 78 (antibody, V domains shown, HSV010-16 heavy chain; HSV010-16 light chain) VH: QIQLVQSGPELKKPGETVKISCKASGYTFTTYGMSWVKQAPGKDLKWMGWINTYSGVSTYGDDFKGRFALSLETSASTAYLQINNLKNEDTATYFCAQLNYGMDYWGQGTSVTVSSA VL: DIVMTQSHKFMSTSVGDRVSITCKASQDVSTSLAWYQQKPGQSPKLLIYSASYRYTGVPDRFTGSGSGTDFTFTISSVQAEDLAVYYCHQHYSIPRTFGGGTKLEIKR		Yes	gB	
HSV010-20: gB-1 specific mouse monoclonal IgG; IgH SEQ ID NO: 64, IgL SEQ ID NO: 66 (antibody, V domains shown, HSV010-20 heavy chain; HSV010-20 light chain) VH: DVQLQESGPGMVRPSQSLSLTCTVTGYSITSGYDWHWIRHFPGNKLEWMGYISYSGLTNYNPSLRSRFSITHDTSKNHFFLKLNSVTTEDTATYYCARGPPWYFDVWGTGTTVTVSSA VL: DIVMTQSQKFMSTSVGGRVSITCKASQIVRATVAWYQQKPGQSPKPLIYLASNRHTGVPDRFTGSGSGTDFTLTISNVQSEDLADYFCLQYWNYPYTFGGGTKLEIKR	No	Yes	gB	No inhibition
HSV010-7: gB-1 specific mouse monoclonal IgG; IgH SEQ ID NO: 36, IgL SEQ ID NO: 38 (antibody, V domains shown, HSV010-7 heavy chain; HSV010-7 light chain) VH: QVQLQQSGPELVKPGASVKLSCKASGYTFTNYDINWVKQRPGQGLEWIGWIYPRDGSTKYNEKFKGKATLTIDTSSSTAYMELHSLTSEDSAVYFCARGIFYVNYDVYWGQGTLVTVSAA VL: DIQMTQSSSFLSVSLGGRVTITCKASDHINNWLAWYQQKPGHAPRLLISGAASLETGVPSRFSGSGSGKDYTLTITSLQTEDVATYYCQQYWSSPLTFGGGTKLELKR	Strong	Yes	gB	
HSV010-15: gB-1 specific mouse monoclonal IgG; IgH SEQ ID NO: 72, IgL SEQ ID NO: 74 (antibody, V domains shown, HSV010-15 heavy chain; HSV010-15 light chain) VH: QVQLQQPGAELVKPGASVKLSCKASGYTFTSYWIHWVQQRPGQGLEWIGMIHPNSGITNYSEKFKSKATLTLDKSSSTAYMQLISLTSEDSAVYYCARGSSSGSAWFAYWGQGTLVTVSAA VL: DIQMTQSSSYLSVSLGGRVTITCKASDHINNWLPWYQQKPGNAPRLLISGATSLETGVPSRFSGSGSGKDYTLSITSLQTEDVATYYCQQYWSSPLTFGAGTKLELKR		Yes	gB	
HSV010-34: gB-1 specific mouse monoclonal IgG; IgH SEQ ID NO: 40, IgL SEQ ID NO: 42 (antibody, V domains shown, HSV010-34 heavy chain; HSV010-34 light chain) VH: EVQLVESGGGLVQPGESLKLSCESNEYEFPSHDMSWVRKTPEKRLELVAAINSDGGSTYYPDTMERRFIISRDNTKKTLYLQMSSLRSEDTALYYCARHSSGYVLDYWGQGTSVTVSSA VL: DIQMTQSSSYLSVSLGGRVTITCKASDHINHWLAWYQQKPGNAPRLLISGATSLETGVPSRFSGSGSGKDYTLSIASLQTEDVATYYCQQYWSTPYTFGGGTKLEIKR	Strong	Yes	gB	
HSV010-6: gB-1 specific mouse monoclonal IgG; IgH SEQ ID NO: 44, IgL SEQ ID NO: 46 (antibody, V domains shown, HSV010-6 heavy chain; HSV010-6 light chain) VH: QVQLQQPGAELVKPGASVKLSCKASGYTFTNYWIHWVKQRPGQGLEWIGMIHPNIGITHYSERFKSKATLTVDKSSTTAYMQLSSLTSEDSAVYYCARGSDSGSAWFAYWGQGTLVTVSAA VL: DIQMTQSSSYLSVSLGGRVTITCKASDHINNWLAWYLQKPGNAPRLLMSGATSLETGVPSRFSGSGSGKDYTLSITSLQTEDVATYYCQQYWSTPLTFGAGTKLELKR	Weak	Yes	gB	
